# Measurements reported in US20060246519A1 (UTI LIMITED PARTNERSHIP, published 2006).
# Experiments:
# [1] = target: T1, biotin-conjugated bovine serum albumin (bovine, UniProt P02769 25-607); test: SPR (BIAcoreX), biotin-conjugated BSA immobilised on CM5 chip, mutein in solution; Kd = kd/ka
# T1 construct: Immobilised on a CM5 sensor chip; also called biotinylated bovine serum albumin (BSA)
# Experimental: (§1) The kinetic parameters (both on- and off-rates for interaction with biotin) of streptavidin muteins were determined in real time using the surface plasmon resonance based BIAcoreX biosensor. Biotin-conjugated bovine serum albumin immobilized on CM5 sensor chip was used to study the reversibility of biotin binding (Qureshi, 2001).
# [2] = target: the molecule itself; test: SDS-PAGE/Western blot of non-boiled culture supernatant, 20 uM biotin in medium; self-association of subunits
# Experimental: FIG. 3: Western blot analysis of cell culture supernatants from B. subtilis strains producing streptavidin muteins carrying a single mutation. 15 μl of non-boiled sample of culture supernatant was loaded to each lane. Samples on the left set were collected from B. subtilis strains cultured in super-rich medium without additional supplement of biotin. Samples on the right set were collected from B. subtilis strains cultured in super-rich medium with additional supplementation of biotin (20 μM). The blot was probed with polyclonal antibodies against streptavidin and developed using 4-chloro-1-napthol (Bio-Rad) as the colour development agent. […] M, molecular weight markers; wt, wild type streptavidin.
# FIG. 4: Analysis of culture supernatants from B. subtilis strains producing streptavidin muteins carrying different combinations of mutations. All these strains were cultivated in super-rich medium supplemented with biotin (20 μM). The 15 μl of non-boiled samples of culture supernatants were loaded. FIG. 4A. Coomassie blue stained SDS-polyacrylamide gel. Bands corresponding to tetrameric and monomeric streptavidin are marked by an asterisk and an arrowhead, respectively. FIG. 4B. Western blot probed with polyclonal antibodies against streptavidin. […]
# [3] = target: the molecule itself; test: SDS-PAGE/Western blot of non-boiled culture supernatant; self-association of subunits
# [4] = target: T1, biotin-conjugated bovine serum albumin; test: SPR (BIAcoreX), biotin-conjugated BSA immobilised on CM5 chip, mutein in solution
# Experimental: as §1
# T1 sequence (P02769 25-607 limits assumed): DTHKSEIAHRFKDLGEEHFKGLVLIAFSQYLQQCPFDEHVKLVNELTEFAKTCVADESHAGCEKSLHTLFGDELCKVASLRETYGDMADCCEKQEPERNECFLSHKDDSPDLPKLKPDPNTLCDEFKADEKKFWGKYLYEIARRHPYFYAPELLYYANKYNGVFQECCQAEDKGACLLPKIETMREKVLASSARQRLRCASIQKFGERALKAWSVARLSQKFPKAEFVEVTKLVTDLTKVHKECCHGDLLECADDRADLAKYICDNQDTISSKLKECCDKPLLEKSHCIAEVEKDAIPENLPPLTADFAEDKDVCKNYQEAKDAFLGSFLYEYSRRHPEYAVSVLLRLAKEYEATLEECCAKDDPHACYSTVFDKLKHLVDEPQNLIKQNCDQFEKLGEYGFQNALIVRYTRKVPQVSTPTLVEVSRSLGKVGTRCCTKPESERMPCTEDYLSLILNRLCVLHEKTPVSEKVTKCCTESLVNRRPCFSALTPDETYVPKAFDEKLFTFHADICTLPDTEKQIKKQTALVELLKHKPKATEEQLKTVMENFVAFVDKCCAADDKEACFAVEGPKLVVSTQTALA
binder,measurement,setting,value
"streptavidin mutein M4 (T76R, V125R, V55T, L109T), secreted by B. subtilis (other, Monomeric in solution; also called M4 mutein) DPSKDSKAQVSAAEAGITGTWYNQLGSTFIVTAGADGALTGTYESAVGNAESRYTLTGRYDSAPATDGSGTALGWRVAWKNNYRNAHSATTWSGQYVGGAEARINTQWTLTSGTTEANAWKSTLRGHDTFTKVKPSAASIDAAKKAGVNNGNPLDAVQQ",Kd,[1],187 nM
same,"% tetramer, with additional biotin",[2],0%
same,"% tetramer, no additional biotin",[3],0%
same,koff,[4],0.00339 s⁻¹
same,kon,[4],18000 M⁻¹ s⁻¹
